The source of these data is US20230357420A1 (VILLARIS THERAPEUTICS, published 2023).

The assay addresses T1, Rhesus CD122 (rhesus monkey, UniProt Q38J85 27-551 (cynomolgus entry)).
T1 construct: also called rhCD122 on cells
T1 sequence: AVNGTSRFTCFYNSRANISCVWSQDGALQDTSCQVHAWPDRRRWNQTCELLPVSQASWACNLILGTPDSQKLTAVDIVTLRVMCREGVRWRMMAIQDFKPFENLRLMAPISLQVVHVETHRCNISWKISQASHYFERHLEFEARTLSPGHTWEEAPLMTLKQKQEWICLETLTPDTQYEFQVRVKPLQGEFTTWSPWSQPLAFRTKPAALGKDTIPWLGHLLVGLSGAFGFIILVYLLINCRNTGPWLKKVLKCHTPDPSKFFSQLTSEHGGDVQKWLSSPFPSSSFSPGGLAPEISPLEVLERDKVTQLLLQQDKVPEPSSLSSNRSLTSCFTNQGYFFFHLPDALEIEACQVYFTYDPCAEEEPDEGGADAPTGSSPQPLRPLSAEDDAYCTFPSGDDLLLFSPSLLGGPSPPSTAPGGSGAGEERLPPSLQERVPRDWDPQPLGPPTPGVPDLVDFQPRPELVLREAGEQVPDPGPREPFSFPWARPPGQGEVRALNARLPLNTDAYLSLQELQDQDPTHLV
Nature of the assay: flow cytometry (FACS) on rhIL15Rβ-transfected CHO-K1 cells, anti-human IgG-FITC, GeoMFI. As to the method:
Purified IgGs were tested in FACs for binding to human and rhesus CD122 expressed on CHO-K1 stable cell lines and CHO-K1 wild-type cells. The IgG samples were titrated in three-fold serial dilutions starting at 500 nM to […]. Binding of IgGs was detected with a mouse anti-human IgG conjugated to FITC. Results were analyzed by examining the Mean Fluorescence Intensity (MFI) of 10000 cells per sample in the BL-1 channel detector of a flow cytometer (AttuneTM NxT Acoustic Focusing Cytometer, Invitrogen/ ThermoFisher Scientific).
(A flow cytometer gives signals particle by particle.)

B1: IgG1-MIKβ1 (humanized) (antibody, V domains shown)
VH: EVQLLESGGGLVQPGGSLRLSCAASGFSVTSYGVHWIRQAPGKGLEWLGVIWSGGSTDYNAAFISRLTISKDNSKNTVYFQMNSLQAEDTAIYYCARAGDYNYDGFAYWGQGTLVTVSS
VL: DIVLTQSPSSLSASVGDRVTITCSGSSSVSFMYWYQQRPGKAPRLLIYDTSNLASGVPSRFSGSGSGTSYTFTISSLQPEDIATYYCQQWSTYPLTFGQGTKVEVK
notes: also called VillMab-1; VillMAB-1
One may read the EC50 (read off the curve) as the concentration at which the effect is half-maximal. Low readings indicate a more potent agent, high ones a less potent agent. Take B1: the “EC50 (read off the curve)” value is ~0.7 nM.
